In paper PMC3750073 (Biochemistry, 2013):

B1: SeMet MilB (selenomethionine-containing MilB, CMP hydrolase of Streptomyces rimofaciens ZJU5119) (enzyme, UniProt B4Y381 1-170, looked up)
chain: MTTTPKPRTAPAVGSVFLGGPFRQLVDPRTGVMSSGDQNVFSRLIEHFESRGTTVYNAHRREAWGAEFLSPAEATRLDHDEIKAADVFVAFPGVPASPGTHVEIGWASGMGKPMVLLLERDEDYAFLVTGLESQANVEILRFSGTEEIVERLDGAVARVLGRAGEPTVIG
modifications: selenomethionine (SeMet-containing protein)

Tests used:
[1] = test system: Nc1ccn([C@@H]2O[C@H](COP(=O)(O)O)[C@@H](O)[C@H]2O)c(=O)n1; experiment: purified protein; settings: pH 7.5; 37.0 °C
[2] = test system: Nc1ccn([C@H]2C[C@H](O)[C@@H](COP(=O)(O)O)O2)c(=O)n1; experiment: purified protein; settings: pH 7.5; 37.0 °C
crystal structure = molecular target: the molecule itself; experiment: crystal structure

Molecule	Km [1]	kcat/Km [1] [M⁻¹ s⁻¹]	Km [2]	kcat/Km [2] [M⁻¹ s⁻¹]	stoichiometry N (crystal structure)
(Streptomyces rimofaciens)	3.8 (0.5) mM	5.2	5.4 (0.8) mM	1.1	
B1					2
